What all share (settings): both partners purified
Assay [1] concerns the target T1, human galectin-14 (Homo sapiens, UniProt Q8TCE9).
T1 construct: galectin-14, human; also called hGal-14; Gal-14; source: bought: Novus Biologicals NBP1-50082
Put plainly: ELISA; dose-response binding ELISA, IgG 0.0009 to 500 nM on immobilised hGal-3-FL and mGal-3-FL (hGal-14 in Supplementary Fig. 7b); detection by anti-hFab-HRP. (ELISA stands for enzyme-linked immunosorbent assay.)

Assay [2] concerns the target T2, recombinant human galectin-3, full length, His-tagged (hGal-3-FL-His Nter) (Homo sapiens, UniProt P17931).
T2 construct: galectin-3, human, full length; the SPR methods say only recombinant Gal-3 (Novalix); also called FL hGal-3; FL-Gal-3; source: recombinant, produced by Novalix (Illkirch, France); not shown: His, N-terminal, kept
Described as above.

Assay [3] addresses T3, recombinant mouse galectin-3, full length, His-tagged (mGal-3-FL-His Nter) (Mus musculus, UniProt P16110).
T3 construct: galectin-3, mouse, full length; source: recombinant, produced by Novalix (Illkirch, France); not shown: His, N-terminal, kept
The assay is described as above.

Assay [4] deals with T3, recombinant mouse galectin-3, full …. Put plainly: SPR; Biacore T-200, mAb captured on anti-human Fc CM5 surface, Gal-3 0.5 to 50 nM injected, single-cycle kinetics, HBS-P (10 mM HEPES, 150 mM NaCl, 0.05% P20), 25 C, 1:1 Langmuir fit.
For assay [5], the target named is T4, recombinant human galectin-3 carbohydrate recognition domain, His-tagged (hGal-3-CRD-His Nter) (human, UniProt P17931).
T4 construct: galectin-3, human, carbohydrate recognition domain; also called CRD of hGal-3; source: recombinant, produced by Novalix (Illkirch, France); not shown: His, N-terminal, kept
Put plainly: ELISA; competition ELISA: hGal-3-CRD coated at 1 ug/mL, IgG 0.0006 to 780 nM for 1 h, washed, then asialofetuin at 8 ug/mL for 30 min; bound asialofetuin detected by HRP-labelled anti-asialofetuin antibody.

In assay [6] the target is T5, recombinant human galectin-3, full-length (Homo sapiens, UniProt P17931).
T5 construct: galectin-3 (Gal-3), human, full-length; the His tag is named for the Novalix protein in the ELISA methods; the SPR methods say only 'recombinant Gal-3 from multiple species (Novalix)'; also called human Gal-3 (FL); hGal-3 (FL); source: recombinant, produced by Novalix
Description: SPR; Biacore T-200; mAb captured (400-680 RU) on a CM5 chip with immobilised anti-human Fc mAb; Gal-3 0.5-50 nM injected, single-cycle kinetics, 210 s association, 600 s dissociation, 30 uL/min; HBS-P (10 mM HEPES, 150 mM NaCl, 0.05% P20), 25 °C; 1:1 Langmuir fit; duplicates. In general terms: Surface plasmon resonance follows binding to a sensor surface in real time, without labels.

The target in assay [7] is T6, recombinant mouse galectin-3, full-length (Mus musculus, UniProt P16110).
T6 construct: galectin-3 (Gal-3), mouse, full-length; the His tag is named for the Novalix protein in the ELISA methods; the SPR methods say only 'recombinant Gal-3 from multiple species (Novalix)'; also called mouse Gal-3 (FL); mGal-3 (FL); source: recombinant, produced by Novalix
The description is as above.

The target of assay [8] is T7, recombinant human galectin-3 carbohydrate recognition domain (Homo sapiens, UniProt P17931).
T7 construct: galectin-3 (Gal-3), human, carbohydrate recognition domain; the His tag is named in the ELISA methods, not in the SPR methods; also called hGal-3 (CRD); hGal-3-CRD-His Nter; source: recombinant, produced by Novalix
The assay is described as above.

Assay [9] deals with T8, recombinant rat galectin-3 carbohydrate recognition domain (Rattus norvegicus, UniProt P08699).
T8 construct: galectin-3 (Gal-3), rat, carbohydrate recognition domain; also called rat Gal-3 (CRD); source: recombinant, Novalix
The assay is described as above.

Assay [10] addresses T9, recombinant dog galectin-3 carbohydrate recognition domain (Canis lupus familiaris, UniProt P38486).
T9 construct: galectin-3 (Gal-3), dog, carbohydrate recognition domain; also called dog Gal-3 (CRD); source: recombinant, Novalix
Described as above.

Experimental findings from PMC10471779, “Antibody-mediated neutralization of galectin-3 as a strategy for the treatment of systemic sclerosis” (Nature Communications, 2023) are described below.

For orientation: EC50 means the concentration giving half of the maximal effect. One may read the Kd as the free concentration of one partner at which half of the binding sites on the other are occupied at equilibrium, for simple one-to-one binding. The IC50 is the point on the concentration scale where inhibition reaches its midpoint. One may read the koff as a measure of how fast the partners let go of each other. One may read the kon as the second-order rate constant of association.

T6 sequence (P16110 whole entry): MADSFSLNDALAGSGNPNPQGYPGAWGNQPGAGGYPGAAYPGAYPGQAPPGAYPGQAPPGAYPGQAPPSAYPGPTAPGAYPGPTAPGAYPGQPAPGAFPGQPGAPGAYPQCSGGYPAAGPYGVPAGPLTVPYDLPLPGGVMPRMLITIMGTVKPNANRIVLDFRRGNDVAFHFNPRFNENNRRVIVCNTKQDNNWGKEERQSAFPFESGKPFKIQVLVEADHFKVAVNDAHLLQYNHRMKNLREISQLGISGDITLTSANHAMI
T3 sequence (P16110 whole entry): as above
T5 sequence (P17931 whole entry): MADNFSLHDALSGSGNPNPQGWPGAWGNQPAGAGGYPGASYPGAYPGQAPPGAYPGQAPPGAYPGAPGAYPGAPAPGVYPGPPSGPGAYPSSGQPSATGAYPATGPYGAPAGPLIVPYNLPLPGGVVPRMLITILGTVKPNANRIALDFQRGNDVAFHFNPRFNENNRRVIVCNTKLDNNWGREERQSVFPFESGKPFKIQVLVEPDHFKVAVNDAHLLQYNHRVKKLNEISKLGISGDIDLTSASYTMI
T4 sequence (P17931 114-250): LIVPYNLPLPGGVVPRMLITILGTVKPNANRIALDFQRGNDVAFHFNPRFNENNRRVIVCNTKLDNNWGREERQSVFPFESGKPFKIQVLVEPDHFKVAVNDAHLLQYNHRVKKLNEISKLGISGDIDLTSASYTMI
T2 sequence (P17931 whole entry): as the sequence (P17931 whole entry) above
T1 sequence (Q8TCE9 whole entry): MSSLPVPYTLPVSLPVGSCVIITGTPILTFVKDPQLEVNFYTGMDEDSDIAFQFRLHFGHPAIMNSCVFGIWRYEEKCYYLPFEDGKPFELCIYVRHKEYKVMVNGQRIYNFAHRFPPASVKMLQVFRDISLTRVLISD

B1: D11 anti-Gal-3 monoclonal antibody (hIgG1 format, LALA) (antibody, V domains shown)
VH: EVQLVESGGSLVKPGGSLRLSCAASGFTFSNYNMNWVRQAPGKGLEWISSIYGSSRYIYYADFVKGRFTISRDNAKNSLYLQMNSLRAEDTAVYYCVRSSYGGMDVWGRGTLVTVSS
VL: QSVLTQPASVSGSPGQSITISCAGTSSDVGGSYNVAWYQQHPGKAPKLMIYYDSYRPSGVSNRFSGSKSGNTASLTISGLQAEDEADYYCSSYTGYSTRVFGGGTKLEIK
notes: from scFv D11 (HuscI library, human framework 13R4); human IgG1 heavy-chain constant region, engineered with the double LALA mutation in the Fc region; IgG1 with LALA; also called D11 mAb; source: CHO-K1 cells (Evitria), transfected, purified (protein A, MabSelect SuRe)
With B1, the EC50 was determined as 59.9 nM in assay [1], 0.37 nM in assay [2] and 0.99 nM in assay [3]. In assay [4], the Kd was less than 5 nM. For the same molecule, in [5], the IC50 was found to be 2.18 nM.

B2: E07 anti-Gal-3 monoclonal antibody (hIgG1 format, LALA) (antibody, V domains shown)
VH: EVQLVESGGSLVKPGGSLRLSCAASGFTFSNYNMNWVRQAPGKGLEWISNIYGSSRYIYYADFVKGRFTISRDNAKNSLYLQMNSLRAEDTAVYYCVRSYYGGMDVWGRGTLVTVSS
VL: QSVLTQPASVSGSPGQSITISCAGTSSDVGGYYSVSWYQQHPGKAPKLMIYYDSNRPSGVSNRFSGSKSGNTASLTISGLQAEDEADYYCSSYTGYSTRVFGGGTKLEIK
notes: from scFv E07 (HuscI library, human framework 13R4); human IgG1 heavy-chain constant region, engineered with the double LALA mutation in the Fc region; IgG1 with LALA; also called E07 mAb; source: CHO-K1 cells (Evitria), transfected, purified (protein A, MabSelect SuRe)
Regarding B2, the EC50 in [1] amounted to 90.6 nM; in assay [2], 0.07 nM; in assay [3], 0.3 nM. Further, the Kd in assay [4] is less than 5 nM. In [5], the IC50 came to 1.5 nM.

B3: E07 anti-Gal-3 monoclonal antibody (antibody, V domains shown)
VH: EVQLVESGGSLVKPGGSLRLSCAASGFTFSNYNMNWVRQAPGKGLEWISNIYGSSRYIYYADFVKGRFTISRDNAKNSLYLQMNSLRAEDTAVYYCVRSYYGGMDVWGRGTLVTVSS
VL: QSVLTQPASVSGSPGQSITISCAGTSSDVGGYYSVSWYQQHPGKAPKLMIYYDSNRPSGVSNRFSGSKSGNTASLTISGLQAEDEADYYCSSYTGYSTRVFGGGTKLEIK
notes: human IgG1, LALA; also called E07 mAb; source: CHO-K1 cells (Evitria), purified (protein A, MabSelect SuRe)
For B3, the Kd in assay [6] came out at 9 nM; in assay [7], 4.14 nM; in assay [8] it was 14.4 nM; in assay [9], 15 nM; in assay [10], 21.5 nM. Further, the koff in assay [6] amounted to 0.0292 s⁻¹; in assay [7], 0.00407 s⁻¹; in assay [8] it was 0.0377 s⁻¹; in assay [9] it was 0.0497 s⁻¹; in assay [10], 0.016 s⁻¹. In addition, the kon was found to be 3.24e+06 M⁻¹ s⁻¹ in assay [6]; 983000 M⁻¹ s⁻¹ in [7]; 2.61e+06 M⁻¹ s⁻¹ in assay [8]; 3.31e+06 M⁻¹ s⁻¹ in [9]; 746000 M⁻¹ s⁻¹ in [10].

B4: D11 anti-Gal-3 monoclonal antibody (antibody, V domains shown)
VH: EVQLVESGGSLVKPGGSLRLSCAASGFTFSNYNMNWVRQAPGKGLEWISSIYGSSRYIYYADFVKGRFTISRDNAKNSLYLQMNSLRAEDTAVYYCVRSSYGGMDVWGRGTLVTVSS
VL: QSVLTQPASVSGSPGQSITISCAGTSSDVGGSYNVAWYQQHPGKAPKLMIYYDSYRPSGVSNRFSGSKSGNTASLTISGLQAEDEADYYCSSYTGYSTRVFGGGTKLEIK
notes: human IgG1, LALA; also called D11 mAb; source: CHO-K1 cells (Evitria), purified (protein A, MabSelect SuRe)
Turning to B4, the Kd in assay [6] is 14.9 nM; in assay [7], 2.8 nM; in assay [8], 26.4 nM; in assay [9] it was 8.55 nM; in assay [10], 24.7 nM. Besides, the koff in assay [6] is 0.0247 s⁻¹; in assay [7], 0.00178 s⁻¹; in assay [8], 0.0428 s⁻¹; in assay [9] it was 0.018 s⁻¹; in assay [10] it was 0.0235 s⁻¹. In addition, the kon in assay [6] was found to be 1.66e+06 M⁻¹ s⁻¹; in [7] it was 635000 M⁻¹ s⁻¹; in assay [8], 1.62e+06 M⁻¹ s⁻¹; in [9], 2.11e+06 M⁻¹ s⁻¹; in [10] it was 948000 M⁻¹ s⁻¹.
